The target in the assay is vasopressin V2 receptor-RlucII (hV2R wt-RlucII) (human). Put plainly: cell-based or functional assay.

For 1 substance, EC50 of agonist-promoted receptor internalization (decrease of BRET between receptor-RlucII and lyn-rGFP) results are on record in US20170313762A1.

In the case of “Oxytocin (from UniProt P01178 20-28) (peptide)”, the EC50 of agonist-promoted receptor internalization (decrease of BRET between receptor-RlucII and lyn-rGFP) came to 2.2 µM.
